Assay results published in patent EP3088890B1 (Chugai Seiyaku Kabushiki Kaisha, dated 2020).

How the values were obtained:
[1] = target: GPC3 core (sGPC3-His) protein (human) (UniProt P51654); assay: competition ELISA on plate-bound sGPC3; unlabeled GT30 (100-fold) inhibits competitor biotin-labeled GT30
[2] = target: GPC3 core (sGPC3-His) protein (human) (UniProt P51654); assay: competition ELISA on plate-bound sGPC3; unlabeled GT30 (100-fold) against competitor biotin-labeled GT607; signal of the labeled antibody
[3] = target: T1, GPC3 peptide 321-350 (SEQ ID NO: 17) (human); assay: peptide ELISA, peptide on plate, antibody at 2 µg/mL
T1 construct: Synthetic 30-residue peptide of GPC3
T1 peptide: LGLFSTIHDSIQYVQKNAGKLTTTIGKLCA

[4] = target: GPC3 core (sGPC3-His) protein (human) (UniProt P51654); assay: ELISA on plate-bound sGPC3; biotin-labeled GT30, no unlabeled antibody
[5] = target: T2, AW3, C-terminally His-tagged recombinant product of positions 1 to 218 of GPC3 (human, UniProt P51654 25-218); assay: Western blot, pellets of CHO cells expressing the product
T2 construct: Expressed in CHO cells, cell pellets used in Western blot; The range is as printed and starts at position 1; not shown: C-terminal His tag

[6] = target: T3, AW2, C-terminally His-tagged recombinant product of positions 1 to 196 of GPC3 (human, UniProt P51654 25-196); assay: as above
T3 construct: Expressed in CHO cells, cell pellets used in Western blot; The range is as printed and starts at position 1; also called AW2 (1-196); not shown: C-terminal His tag

[7] = target: GPC3 core (sGPC3-His) protein (human) (UniProt P51654); assay: competition ELISA on plate-bound sGPC3; unlabeled GT30 (100-fold) against competitor biotin-labeled GT607
[8] = target: GPC3 core (sGPC3-His) protein (human) (UniProt P51654); assay: competition ELISA on plate-bound sGPC3; unlabeled GT30 (100-fold) against competitor biotin-labeled GT114; signal of the labeled antibody
[9] = target: GPC3 core (sGPC3-His) protein (human) (UniProt P51654); assay: competition ELISA on plate-bound sGPC3; unlabeled GT30 (100-fold) against competitor biotin-labeled GT114
[10] = target: GPC3 core (sGPC3-His) protein (human) (UniProt P51654); assay: competition ELISA on plate-bound sGPC3; unlabeled GT30 (100-fold) against competitor biotin-labeled GT165; signal of the labeled antibody
[11] = target: GPC3 core (sGPC3-His) protein (human) (UniProt P51654); assay: competition ELISA on plate-bound sGPC3; unlabeled GT30 (100-fold) against competitor biotin-labeled GT30; signal of the labeled antibody
[12] = target: T4, AW5, C-terminally His-tagged recombinant product of positions 1 to 357 of GPC3 (human, UniProt P51654 25-357); assay: Western blot analysis, CHO cell pellets
T4 construct: Expressed in CHO cells, cell pellets used in Western blot; The range is as printed and starts at position 1; also called AW5 (1-357); not shown: C-terminal His tag

[13] = target: GPC3 core (sGPC3-His) protein (human) (UniProt P51654); assay: competition ELISA on plate-bound sGPC3; unlabeled GT30 (100-fold) against competitor biotin-labeled GT165

Chain of GPC3 core (sGPC3-His) protein (human) (P51654 25-563 S495A/S509A): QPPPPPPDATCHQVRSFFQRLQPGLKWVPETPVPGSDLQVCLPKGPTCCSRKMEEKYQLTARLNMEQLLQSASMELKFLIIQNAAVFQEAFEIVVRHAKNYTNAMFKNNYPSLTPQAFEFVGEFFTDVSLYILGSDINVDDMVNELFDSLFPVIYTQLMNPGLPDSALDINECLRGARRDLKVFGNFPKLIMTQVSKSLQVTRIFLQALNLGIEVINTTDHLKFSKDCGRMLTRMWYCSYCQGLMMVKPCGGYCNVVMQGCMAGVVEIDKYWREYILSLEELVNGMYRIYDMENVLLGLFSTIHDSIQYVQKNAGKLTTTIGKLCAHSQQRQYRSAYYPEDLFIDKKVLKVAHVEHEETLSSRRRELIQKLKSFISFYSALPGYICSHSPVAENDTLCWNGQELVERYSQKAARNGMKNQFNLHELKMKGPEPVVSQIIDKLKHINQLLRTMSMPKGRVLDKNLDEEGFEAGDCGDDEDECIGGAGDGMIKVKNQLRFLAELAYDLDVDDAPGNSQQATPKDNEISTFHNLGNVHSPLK
T4 sequence (P51654 25-357): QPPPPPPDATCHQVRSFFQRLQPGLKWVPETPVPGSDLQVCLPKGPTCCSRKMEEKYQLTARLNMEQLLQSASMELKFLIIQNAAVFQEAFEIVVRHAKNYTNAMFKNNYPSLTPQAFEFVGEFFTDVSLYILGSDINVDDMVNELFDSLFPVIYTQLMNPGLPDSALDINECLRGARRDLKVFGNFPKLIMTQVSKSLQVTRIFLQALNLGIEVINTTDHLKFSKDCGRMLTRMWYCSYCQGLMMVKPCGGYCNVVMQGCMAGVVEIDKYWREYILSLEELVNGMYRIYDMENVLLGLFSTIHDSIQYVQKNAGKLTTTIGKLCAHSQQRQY
T2 sequence (P51654 25-218): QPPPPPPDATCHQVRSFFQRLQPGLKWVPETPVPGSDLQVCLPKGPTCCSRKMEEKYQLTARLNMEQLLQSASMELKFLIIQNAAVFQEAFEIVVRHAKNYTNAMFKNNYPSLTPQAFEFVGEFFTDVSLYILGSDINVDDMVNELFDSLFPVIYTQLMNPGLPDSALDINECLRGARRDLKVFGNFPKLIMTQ
T3 sequence (P51654 25-196): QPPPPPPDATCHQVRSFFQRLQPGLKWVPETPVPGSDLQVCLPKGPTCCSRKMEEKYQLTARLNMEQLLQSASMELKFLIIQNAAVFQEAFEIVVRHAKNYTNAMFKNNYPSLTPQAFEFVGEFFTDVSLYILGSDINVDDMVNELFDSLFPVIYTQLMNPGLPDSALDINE

- Inhibitory effect (%) [1]: 96%
- O.D. 450 [2]: 2.12 O.D. 450
- binding result [3]: binds
- O.D. 450 [4]: 1.84 O.D. 450
- binding result [5]: no binding
- binding result [6]: no binding
- Inhibitory effect (%) [7]: 3%
- O.D. 450 [8]: 2.31 O.D. 450
- Inhibitory effect (%) [9]: < 0%
- O.D. 450 [10]: 0.098 O.D. 450
- O.D. 450 [11]: 0.07 O.D. 450
- binding result [12]: binds
- Inhibitory effect (%) [13]: 94%
B1: GT30 antibody (antibody, IgG1, V domains shown)
VH: QVQLQQSGAELARPGASVKLSCRASGYTFTSYGISWMMQRTGQGLEWIGEIYPRSGITYYNEKFKGKATLTADKSSSTAYMQLSSLTSEDSAVYFCARDVSDGYLFPYWGQGTLVTVSA
VL: DIQMTQSPASLSASVGETVTITCRTSENIYSYLAWYQQKQGKSPQLLVYNAKTLPEGVPSRFSGSGSGTQFSLKINSLQPEDFGSYYCQHHYGTPPTFGGGTKLEIKR
